Test results taken from patent US20230357348A1 (AstraZeneca / MedImmune, published 2023).
Starred links: 1 amine or outer side, 2 acyl side, 3 side chain; linkers in the order of their positions; H or OH if unused. Non-standard residues stand in square brackets, D forms with d. Groups on a side chain read outwards from the residue. No end group written: not given here. *: point of attachment. C20 diacid = O=C(O)CCCCCCCCCCCCCCCCCCC(=O)*; C18 diacid = O=C(O)CCCCCCCCCCCCCCCCC(=O)*; γGlu = O=C(O)[C@H](CCC(=O)[*:2])N[*:1]; αMeF = C[C@](N)(Cc1ccccc1)C(=O)O; AEEA = NCCOCCOCC(=O)O; Aib = CC(C)(N)C(=O)O

Tests used:
[1] = biological target: human glucagon receptor (hGCGR) (human, UniProt P47871 26-477); experiment: cell-based or functional assay
Sequence of human glucagon receptor (hGCGR) (P47871 26-477): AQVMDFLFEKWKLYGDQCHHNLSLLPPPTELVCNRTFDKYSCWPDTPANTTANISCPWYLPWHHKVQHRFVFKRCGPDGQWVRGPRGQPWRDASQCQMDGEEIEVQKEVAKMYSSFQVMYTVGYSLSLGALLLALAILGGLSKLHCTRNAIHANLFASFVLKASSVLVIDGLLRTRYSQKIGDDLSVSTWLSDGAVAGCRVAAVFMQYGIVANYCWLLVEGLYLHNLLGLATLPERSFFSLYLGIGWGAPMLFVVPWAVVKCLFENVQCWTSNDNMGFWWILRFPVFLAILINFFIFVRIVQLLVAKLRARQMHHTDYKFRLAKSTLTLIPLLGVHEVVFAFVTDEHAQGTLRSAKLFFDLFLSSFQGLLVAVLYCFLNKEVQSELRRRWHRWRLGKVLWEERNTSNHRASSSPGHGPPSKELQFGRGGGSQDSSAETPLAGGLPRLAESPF

[2] = biological target: human GLP-1 receptor (hGLP-1R) (human, UniProt P43220 24-463); experiment: cell-based or functional assay

Binder	hGluc-R EC50 (pM) [1] [pM]	hGLP-1R EC50 (pM) [2] [pM]
H[Aib]HGS[αMeF]TSDVSK[αMeF]LDSK([AEEA-AEEA-γGlu-γGlu-C18 diacid])AARD[αMeF]VQ[Aib]IANT-NH2 (N-terminus assumed; SMILES CC[C@H](C)[C@H](NC(=O)C(C)(C)NC(=O)[C@H](CCC(N)=O)NC(=O)[C@@H](NC(=O)[C@](C)(Cc1ccccc1)NC(=O)[C@H](CC(=O)O)NC(=O)[C@H](CCCNC(=N)N)NC(=O)[C@H](C)NC(=O)[C@H](C)NC(=O)[C@H](CCCCNC(=O)COCCOCCNC(=O)COCCOCCNC(=O)CC[C@H](NC(=O)CC[C@H](NC(=O)CCCCCCCCCCCCCCCCC(=O)O)C(=O)O)C(=O)O)NC(=O)[C@H](CO)NC(=O)[C@H](CC(=O)O)NC(=O)[C@H](CC(C)C)NC(=O)[C@](C)(Cc1ccccc1)NC(=O)[C@H](CCCCN)NC(=O)[C@H](CO)NC(=O)[C@@H](NC(=O)[C@H](CC(=O)O)NC(=O)[C@H](CO)NC(=O)[C@@H](NC(=O)[C@](C)(Cc1ccccc1)NC(=O)[C@H](CO)NC(=O)CNC(=O)[C@H](Cc1c[nH]cn1)NC(=O)C(C)(C)NC(=O)[C@@H](N)Cc1c[nH]cn1)[C@@H](C)O)C(C)C)C(C)C)C(=O)N[C@@H](C)C(=O)N[C@@H](CC(N)=O)C(=O)N[C@H](C(N)=O)[C@@H](C)O) [Peptide 19]	133	38.3
H[Aib]HGS[αMeF]TSDVSK[αMeF]LDSK([AEEA-AEEA-γGlu-γGlu-C20 diacid])AAQD[αMeF]VESIANT-NH2 (N-terminus assumed; SMILES CC[C@H](C)[C@H](NC(=O)[C@H](CO)NC(=O)[C@H](CCC(=O)O)NC(=O)[C@@H](NC(=O)[C@](C)(Cc1ccccc1)NC(=O)[C@H](CC(=O)O)NC(=O)[C@H](CCC(N)=O)NC(=O)[C@H](C)NC(=O)[C@H](C)NC(=O)[C@H](CCCCNC(=O)COCCOCCNC(=O)COCCOCCNC(=O)CC[C@H](NC(=O)CC[C@H](NC(=O)CCCCCCCCCCCCCCCCCCC(=O)O)C(=O)O)C(=O)O)NC(=O)[C@H](CO)NC(=O)[C@H](CC(=O)O)NC(=O)[C@H](CC(C)C)NC(=O)[C@](C)(Cc1ccccc1)NC(=O)[C@H](CCCCN)NC(=O)[C@H](CO)NC(=O)[C@@H](NC(=O)[C@H](CC(=O)O)NC(=O)[C@H](CO)NC(=O)[C@@H](NC(=O)[C@](C)(Cc1ccccc1)NC(=O)[C@H](CO)NC(=O)CNC(=O)[C@H](Cc1c[nH]cn1)NC(=O)C(C)(C)NC(=O)[C@@H](N)Cc1c[nH]cn1)[C@@H](C)O)C(C)C)C(C)C)C(=O)N[C@@H](C)C(=O)N[C@@H](CC(N)=O)C(=O)N[C@H](C(N)=O)[C@@H](C)O) [Peptide 22]	2720	1230
H[Aib]HGS[αMeF]TSDVSK[αMeF]LDSK([AEEA-AEEA-γGlu-C18 diacid])AARD[αMeF]IA[Aib]IANT-NH2 (N-terminus assumed; SMILES CC[C@H](C)[C@H](NC(=O)C(C)(C)NC(=O)[C@H](C)NC(=O)[C@@H](NC(=O)[C@](C)(Cc1ccccc1)NC(=O)[C@H](CC(=O)O)NC(=O)[C@H](CCCNC(=N)N)NC(=O)[C@H](C)NC(=O)[C@H](C)NC(=O)[C@H](CCCCNC(=O)COCCOCCNC(=O)COCCOCCNC(=O)CC[C@H](NC(=O)CCCCCCCCCCCCCCCCC(=O)O)C(=O)O)NC(=O)[C@H](CO)NC(=O)[C@H](CC(=O)O)NC(=O)[C@H](CC(C)C)NC(=O)[C@](C)(Cc1ccccc1)NC(=O)[C@H](CCCCN)NC(=O)[C@H](CO)NC(=O)[C@@H](NC(=O)[C@H](CC(=O)O)NC(=O)[C@H](CO)NC(=O)[C@@H](NC(=O)[C@](C)(Cc1ccccc1)NC(=O)[C@H](CO)NC(=O)CNC(=O)[C@H](Cc1c[nH]cn1)NC(=O)C(C)(C)NC(=O)[C@@H](N)Cc1c[nH]cn1)[C@@H](C)O)C(C)C)[C@@H](C)CC)C(=O)N[C@@H](C)C(=O)N[C@@H](CC(N)=O)C(=O)N[C@H](C(N)=O)[C@@H](C)O) [Peptide 16]	105	33
H[Aib]HGS[αMeF]TSDVSK[αMeF]LDSK([AEEA-AEEA-γGlu-γGlu-C18 diacid])AARD[αMeF]VE[Aib]IANT-NH2 (N-terminus assumed; SMILES CC[C@H](C)[C@H](NC(=O)C(C)(C)NC(=O)[C@H](CCC(=O)O)NC(=O)[C@@H](NC(=O)[C@](C)(Cc1ccccc1)NC(=O)[C@H](CC(=O)O)NC(=O)[C@H](CCCNC(=N)N)NC(=O)[C@H](C)NC(=O)[C@H](C)NC(=O)[C@H](CCCCNC(=O)COCCOCCNC(=O)COCCOCCNC(=O)CC[C@H](NC(=O)CC[C@H](NC(=O)CCCCCCCCCCCCCCCCC(=O)O)C(=O)O)C(=O)O)NC(=O)[C@H](CO)NC(=O)[C@H](CC(=O)O)NC(=O)[C@H](CC(C)C)NC(=O)[C@](C)(Cc1ccccc1)NC(=O)[C@H](CCCCN)NC(=O)[C@H](CO)NC(=O)[C@@H](NC(=O)[C@H](CC(=O)O)NC(=O)[C@H](CO)NC(=O)[C@@H](NC(=O)[C@](C)(Cc1ccccc1)NC(=O)[C@H](CO)NC(=O)CNC(=O)[C@H](Cc1c[nH]cn1)NC(=O)C(C)(C)NC(=O)[C@@H](N)Cc1c[nH]cn1)[C@@H](C)O)C(C)C)C(C)C)C(=O)N[C@@H](C)C(=O)N[C@@H](CC(N)=O)C(=O)N[C@H](C(N)=O)[C@@H](C)O) [Peptide 20]	136	152

Further lines, results first:

hGluc-R EC50 (pM) [1] [pM]	hGLP-1R EC50 (pM) [2] [pM]	Binder
68.8	378	H[Aib]HGS[αMeF]TSDVSK[αMeF]LDSK([γGlu-C18 diacid])AAQD[αMeF]VESIANT-NH2 (N-terminus assumed; SMILES CC[C@H](C)[C@H](NC(=O)[C@H](CO)NC(=O)[C@H](CCC(=O)O)NC(=O)[C@@H](NC(=O)[C@](C)(Cc1ccccc1)NC(=O)[C@H](CC(=O)O)NC(=O)[C@H](CCC(N)=O)NC(=O)[C@H](C)NC(=O)[C@H](C)NC(=O)[C@H](CCCCNC(=O)CC[C@H](NC(=O)CCCCCCCCCCCCCCCCC(=O)O)C(=O)O)NC(=O)[C@H](CO)NC(=O)[C@H](CC(=O)O)NC(=O)[C@H](CC(C)C)NC(=O)[C@](C)(Cc1ccccc1)NC(=O)[C@H](CCCCN)NC(=O)[C@H](CO)NC(=O)[C@@H](NC(=O)[C@H](CC(=O)O)NC(=O)[C@H](CO)NC(=O)[C@@H](NC(=O)[C@](C)(Cc1ccccc1)NC(=O)[C@H](CO)NC(=O)CNC(=O)[C@H](Cc1c[nH]cn1)NC(=O)C(C)(C)NC(=O)[C@@H](N)Cc1c[nH]cn1)[C@@H](C)O)C(C)C)C(C)C)C(=O)N[C@@H](C)C(=O)N[C@@H](CC(N)=O)C(=O)N[C@H](C(N)=O)[C@@H](C)O) [Peptide 21]
135	45	H[Aib]HGS[αMeF]TSDVSK[αMeF]LDSK([AEEA-AEEA-γGlu-C18 diacid])AARD[αMeF]VESIANT-NH2 (N-terminus assumed; SMILES CC[C@H](C)[C@H](NC(=O)[C@H](CO)NC(=O)[C@H](CCC(=O)O)NC(=O)[C@@H](NC(=O)[C@](C)(Cc1ccccc1)NC(=O)[C@H](CC(=O)O)NC(=O)[C@H](CCCNC(=N)N)NC(=O)[C@H](C)NC(=O)[C@H](C)NC(=O)[C@H](CCCCNC(=O)COCCOCCNC(=O)COCCOCCNC(=O)CC[C@H](NC(=O)CCCCCCCCCCCCCCCCC(=O)O)C(=O)O)NC(=O)[C@H](CO)NC(=O)[C@H](CC(=O)O)NC(=O)[C@H](CC(C)C)NC(=O)[C@](C)(Cc1ccccc1)NC(=O)[C@H](CCCCN)NC(=O)[C@H](CO)NC(=O)[C@@H](NC(=O)[C@H](CC(=O)O)NC(=O)[C@H](CO)NC(=O)[C@@H](NC(=O)[C@](C)(Cc1ccccc1)NC(=O)[C@H](CO)NC(=O)CNC(=O)[C@H](Cc1c[nH]cn1)NC(=O)C(C)(C)NC(=O)[C@@H](N)Cc1c[nH]cn1)[C@@H](C)O)C(C)C)C(C)C)C(=O)N[C@@H](C)C(=O)N[C@@H](CC(N)=O)C(=O)N[C@H](C(N)=O)[C@@H](C)O) [Peptide 17]
122	20.5	H[Aib]HGS[αMeF]TSDVSK[αMeF]LDSK([AEEA-AEEA-γGlu-C18 diacid])AARD[αMeF]VQSIANT-NH2 (N-terminus assumed; SMILES CC[C@H](C)[C@H](NC(=O)[C@H](CO)NC(=O)[C@H](CCC(N)=O)NC(=O)[C@@H](NC(=O)[C@](C)(Cc1ccccc1)NC(=O)[C@H](CC(=O)O)NC(=O)[C@H](CCCNC(=N)N)NC(=O)[C@H](C)NC(=O)[C@H](C)NC(=O)[C@H](CCCCNC(=O)COCCOCCNC(=O)COCCOCCNC(=O)CC[C@H](NC(=O)CCCCCCCCCCCCCCCCC(=O)O)C(=O)O)NC(=O)[C@H](CO)NC(=O)[C@H](CC(=O)O)NC(=O)[C@H](CC(C)C)NC(=O)[C@](C)(Cc1ccccc1)NC(=O)[C@H](CCCCN)NC(=O)[C@H](CO)NC(=O)[C@@H](NC(=O)[C@H](CC(=O)O)NC(=O)[C@H](CO)NC(=O)[C@@H](NC(=O)[C@](C)(Cc1ccccc1)NC(=O)[C@H](CO)NC(=O)CNC(=O)[C@H](Cc1c[nH]cn1)NC(=O)C(C)(C)NC(=O)[C@@H](N)Cc1c[nH]cn1)[C@@H](C)O)C(C)C)C(C)C)C(=O)N[C@@H](C)C(=O)N[C@@H](CC(N)=O)C(=O)N[C@H](C(N)=O)[C@@H](C)O) [Peptide 18]
61.4	33.1	H[Aib]HGS[αMeF]TSDVSK[αMeF]LDSK([AEEA-AEEA-γGlu-C18 diacid])AARD[αMeF]VE[Aib]IANT-NH2 (N-terminus assumed; SMILES CC[C@H](C)[C@H](NC(=O)C(C)(C)NC(=O)[C@H](CCC(=O)O)NC(=O)[C@@H](NC(=O)[C@](C)(Cc1ccccc1)NC(=O)[C@H](CC(=O)O)NC(=O)[C@H](CCCNC(=N)N)NC(=O)[C@H](C)NC(=O)[C@H](C)NC(=O)[C@H](CCCCNC(=O)COCCOCCNC(=O)COCCOCCNC(=O)CC[C@H](NC(=O)CCCCCCCCCCCCCCCCC(=O)O)C(=O)O)NC(=O)[C@H](CO)NC(=O)[C@H](CC(=O)O)NC(=O)[C@H](CC(C)C)NC(=O)[C@](C)(Cc1ccccc1)NC(=O)[C@H](CCCCN)NC(=O)[C@H](CO)NC(=O)[C@@H](NC(=O)[C@H](CC(=O)O)NC(=O)[C@H](CO)NC(=O)[C@@H](NC(=O)[C@](C)(Cc1ccccc1)NC(=O)[C@H](CO)NC(=O)CNC(=O)[C@H](Cc1c[nH]cn1)NC(=O)C(C)(C)NC(=O)[C@@H](N)Cc1c[nH]cn1)[C@@H](C)O)C(C)C)C(C)C)C(=O)N[C@@H](C)C(=O)N[C@@H](CC(N)=O)C(=O)N[C@H](C(N)=O)[C@@H](C)O) [Peptide 15]
